According to patent EP4361176A1 (CHUGAI SEIYAKU KABUSHIKI KAISHA, dated 2024):

Experiments:
[1] = molecular target: hFcyRIIIaV on hFcyRIIIaV-expressing Jurkat cells (human, UniProt P08637 17-254); assay: cell-based or functional assay
[2] = molecular target: T1, human FcγRIIa H extracellular domain (human, UniProt P12318 34-217); assay: SPR; KD for FcγRIIb divided by KD for this FcγR
T1 construct: extracellular domain; Made by the method of WO2014104165; also called hFcγR IIa H; FcyRIIaH
T1 sequence (looked up): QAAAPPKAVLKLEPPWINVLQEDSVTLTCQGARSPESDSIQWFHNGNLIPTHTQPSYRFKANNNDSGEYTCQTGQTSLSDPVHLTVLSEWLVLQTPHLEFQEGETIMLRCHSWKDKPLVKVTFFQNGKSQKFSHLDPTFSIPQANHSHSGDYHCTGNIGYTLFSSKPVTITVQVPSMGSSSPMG

[3] = molecular target: T2, human FcγRIIIa F extracellular domain (human, UniProt P08637 17-208); assay: SPR; KD for FcγRIIb divided by KD for this FcγR
T2 construct: extracellular domain; Made by the method of WO2014104165; also called hFcγR IIIa F; FcyRIIIaF
T2 sequence (P08637 17-208): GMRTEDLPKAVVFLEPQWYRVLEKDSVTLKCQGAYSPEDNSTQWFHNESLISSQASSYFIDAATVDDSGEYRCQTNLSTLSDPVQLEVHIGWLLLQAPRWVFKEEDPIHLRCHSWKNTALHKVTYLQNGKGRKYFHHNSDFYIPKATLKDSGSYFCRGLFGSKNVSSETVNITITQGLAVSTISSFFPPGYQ

[4] = molecular target: T3, hFcyRIIaH on hFcyRIIaH-expressing Jurkat cells (human, UniProt P12318 34-317); assay: cell-based or functional assay
T3 sequence (looked up): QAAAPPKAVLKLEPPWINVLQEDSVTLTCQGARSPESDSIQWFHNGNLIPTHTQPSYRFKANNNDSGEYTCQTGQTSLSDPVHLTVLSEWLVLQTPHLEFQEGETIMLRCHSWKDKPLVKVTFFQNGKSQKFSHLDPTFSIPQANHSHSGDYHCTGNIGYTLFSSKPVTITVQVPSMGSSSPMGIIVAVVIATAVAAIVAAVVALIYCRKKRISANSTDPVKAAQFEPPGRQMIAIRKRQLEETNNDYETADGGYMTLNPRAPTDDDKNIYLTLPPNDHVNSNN

hFcyRIIIaV on hFcyRIIIaV-expressing Jurkat cells, sequence (P08637 17-254): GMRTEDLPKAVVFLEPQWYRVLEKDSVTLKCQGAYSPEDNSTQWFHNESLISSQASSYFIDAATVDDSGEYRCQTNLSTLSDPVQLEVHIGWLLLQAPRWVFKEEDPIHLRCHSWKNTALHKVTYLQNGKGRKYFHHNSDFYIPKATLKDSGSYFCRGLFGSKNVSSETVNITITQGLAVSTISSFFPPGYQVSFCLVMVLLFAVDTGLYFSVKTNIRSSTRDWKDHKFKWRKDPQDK

B1: H240-Kn496/L73-k0//H240-Hl516/L73-k0 (antibody, human IgG1, kappa)
heavy 1: QDQLVQSGAEVKKPGASVKVSCKASGFNIKDTYIQWVRQAPGQGLEWMGRIDPLRKQTKYREKFEGRVTITADTSTNTAYMELSSLRSEDTAVYYCVRSGREFDYWGQGTLVTVSSASTKGPSVFPLAPSSKSTSGGTAALGCLVKDYFPEPVTVSWNSGALTSGVHTFPAVLQSSGLYSLSSVVTVPSSSLGTQTYICNVNHKPSNTKVDKKVEPKSCDKTHTCPPCPAPEFQWGPMVFLFPPKPKDVLMISRTPEVTCVVVDVSDEEPEVKFNWYVDGVEVHNAKTKPREEQYNATYRVVSVLPVLHQDWLNGKEYKCKVSNKALPAPIEKTISKAKGQPREPQVCTLPPSRDELTKNQVSLWCLVKGFYPSDIAVEWESNGQPENNYKTTPPVLDSDGSFFLYSKLTVDKSRWQQGNVFSCSVMHEALHNHYTQKSLSLSP
heavy 2: QDQLVQSGAEVKKPGASVKVSCKASGFNIKDTYIQWVRQAPGQGLEWMGRIDPLRKQTKYREKFEGRVTITADTSTNTAYMELSSLRSEDTAVYYCVRSGREFDYWGQGTLVTVSSASTKGPSVFPLAPSSKSTSGGTAALGCLVKDYFPEPVTVSWNSGALTSGVHTFPAVLQSSGLYSLSSVVTVPSSSLGTQTYICNVNHKPSNTKVDKKVEPKSCDKTHTCPPCPAPELLGGPSVFLFPPKPKDVLMISRTPEVTCVVVDVSHEEPEVKFNWYVDGVEVHNAKTKPREEQYNATYRVVSVLPVLHQDWLNGKEYKCKVSNDALPAPIEETISKAKGQPREPQVYTLPPSRCELTKNQVSLSCAVKGFYPSDIAVEWESNGQPENNYKTTPPVLDSDGSFFLVSKLTVDKSRWQQGNVFSCSVMHEALHNHYTQKSLSLSP
light: DIQMTQSPSSLSASVGDRVTITCRASQDIHKYIAWYQQKPGQAPRLLIQYTSTLQPGVPSRFSGSGSGTDYTFTISSLQPEDIATYYCLQYEQLRTFGGGTKVEIKRTVAAPSVFIFPPSDEQLKSGTASVVCLLNNFYPREAKVQWKVDNALQSGNSQESVTEQDSKDSTYSLSSTLTLSKADYEKHKVYACEVTHQGLSSPVTKSFNRGEC
notes: also called EGL-ART11; ART11
- EC50 value (µg/mL), ADCC reporter bioassay (fold induction of luminescence), Hepa1-6/hEREG target cells [1]: 0.000413 µg/mL
- A/I ratio (KD for FcγRIIb divided by KD for each FcyR) [2]: 63.3
- A/I ratio (KD for FcγRIIb divided by KD for each FcyR) [3]: 694
- EC50 value (µg/mL), ADCP reporter bioassay (fold induction of luminescence), Hepa1-6/hEREG target cells [4]: 0.0367 µg/mL

B2: H240-G1d/L73-k0 (antibody, human IgG1, kappa)
heavy: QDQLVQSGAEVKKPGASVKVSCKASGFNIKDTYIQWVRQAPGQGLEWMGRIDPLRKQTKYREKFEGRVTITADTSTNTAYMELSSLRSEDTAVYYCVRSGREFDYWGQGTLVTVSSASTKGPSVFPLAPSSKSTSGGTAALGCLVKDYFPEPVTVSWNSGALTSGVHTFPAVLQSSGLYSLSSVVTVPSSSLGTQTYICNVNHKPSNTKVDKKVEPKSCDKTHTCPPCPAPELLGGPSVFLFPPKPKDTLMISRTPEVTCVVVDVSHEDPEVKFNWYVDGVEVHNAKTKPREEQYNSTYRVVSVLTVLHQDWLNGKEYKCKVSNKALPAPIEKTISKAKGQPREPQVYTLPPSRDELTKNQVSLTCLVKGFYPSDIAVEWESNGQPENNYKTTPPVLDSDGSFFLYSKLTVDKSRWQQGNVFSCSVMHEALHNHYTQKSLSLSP
light: DIQMTQSPSSLSASVGDRVTITCRASQDIHKYIAWYQQKPGQAPRLLIQYTSTLQPGVPSRFSGSGSGTDYTFTISSLQPEDIATYYCLQYEQLRTFGGGTKVEIKRTVAAPSVFIFPPSDEQLKSGTASVVCLLNNFYPREAKVQWKVDNALQSGNSQESVTEQDSKDSTYSLSSTLTLSKADYEKHKVYACEVTHQGLSSPVTKSFNRGEC
notes: Anti-human Epiregulin antibody with the human IgG1 constant region G1d (C-terminal Gly and Lys removed); the text gives 279; also called EGL-G1d
- EC50 value (µg/mL), ADCC reporter bioassay (fold induction of luminescence), Hepa1-6/hEREG target cells [1]: 0.0463 µg/mL
- A/I ratio (KD for FcγRIIb divided by KD for each FcyR) [2]: 8.9
- A/I ratio (KD for FcγRIIb divided by KD for each FcyR) [3]: 3.4

B3: H240-Kn032/L73-k0//H240-Hl032/L73-k0 (antibody, human IgG1, kappa)
heavy 1: QDQLVQSGAEVKKPGASVKVSCKASGFNIKDTYIQWVRQAPGQGLEWMGRIDPLRKQTKYREKFEGRVTITADTSTNTAYMELSSLRSEDTAVYYCVRSGREFDYWGQGTLVTVSSASTKGPSVFPLAPSSKSTSGGTAALGCLVKDYFPEPVTVSWNSGALTSGVHTFPAVLQSSGLYSLSSVVTVPSSSLGTQTYICNVNHKPSNTKVDKKVEPKSCDKTHTCPPCPAPELLGGPDVFLFPPKPKDTLMISRTPEVTCVVVDVSHEDPEVKFNWYVDGVEVHNAKTKPREEQYNSTYRVVSVLTVLHQDWLNGKEYKCKVSNKALPLPEEKTISKAKGQPREPQVCTLPPSRDELTKNQVSLWCLVKGFYPSDIAVEWESNGQPENNYKTTPPVLDSDGSFFLYSKLTVDKSRWQQGNVFSCSVMHEALHNHYTQKSLSLSP
heavy 2: QDQLVQSGAEVKKPGASVKVSCKASGFNIKDTYIQWVRQAPGQGLEWMGRIDPLRKQTKYREKFEGRVTITADTSTNTAYMELSSLRSEDTAVYYCVRSGREFDYWGQGTLVTVSSASTKGPSVFPLAPSSKSTSGGTAALGCLVKDYFPEPVTVSWNSGALTSGVHTFPAVLQSSGLYSLSSVVTVPSSSLGTQTYICNVNHKPSNTKVDKKVEPKSCDKTHTCPPCPAPELLGGPDVFLFPPKPKDTLMISRTPEVTCVVVDVSHEDPEVKFNWYVDGVEVHNAKTKPREEQYNSTYRVVSVLTVLHQDWLNGKEYKCKVSNKALPLPEEKTISKAKGQPREPQVYTLPPSRCELTKNQVSLSCAVKGFYPSDIAVEWESNGQPENNYKTTPPVLDSDGSFFLVSKLTVDKSRWQQGNVFSCSVMHEALHNHYTQKSLSLSP
light: DIQMTQSPSSLSASVGDRVTITCRASQDIHKYIAWYQQKPGQAPRLLIQYTSTLQPGVPSRFSGSGSGTDYTFTISSLQPEDIATYYCLQYEQLRTFGGGTKVEIKRTVAAPSVFIFPPSDEQLKSGTASVVCLLNNFYPREAKVQWKVDNALQSGNSQESVTEQDSKDSTYSLSSTLTLSKADYEKHKVYACEVTHQGLSSPVTKSFNRGEC
notes: also called EGL-SDALIE; SDALIE
- EC50 value (µg/mL), ADCC reporter bioassay (fold induction of luminescence), Hepa1-6/hEREG target cells [1]: 0.00178 µg/mL
- A/I ratio (KD for FcγRIIb divided by KD for each FcyR) [2]: 2.2
- A/I ratio (KD for FcγRIIb divided by KD for each FcyR) [3]: 98.7

B4: H240-Kn120/L73-k0//H240-Hl068/L73-k0 (antibody, human IgG1, kappa)
heavy 1: QDQLVQSGAEVKKPGASVKVSCKASGFNIKDTYIQWVRQAPGQGLEWMGRIDPLRKQTKYREKFEGRVTITADTSTNTAYMELSSLRSEDTAVYYCVRSGREFDYWGQGTLVTVSSASTKGPSVFPLAPSSKSTSGGTAALGCLVKDYFPEPVTVSWNSGALTSGVHTFPAVLQSSGLYSLSSVVTVPSSSLGTQTYICNVNHKPSNTKVDKKVEPKSCDKTHTCPPCPAPEYYWGPMVFLFPPKPKDTLMISRTPEVTCVVVDVSDEDPEVKFNWYVDGVEVHNAKTKPREEQYNATYRVVSVLTVLHQDWLNGKEYKCKVSNKDLPAPIEKTISKAKGQPREPQVCTLPPSRDELTKNQVSLWCLVKGFYPSDIAVEWESNGQPENNYKTTPPVLDSDGSFFLYSKLTVDKSRWQQGNVFSCSVMHEALHNHYTQKSLSLSP
heavy 2: QDQLVQSGAEVKKPGASVKVSCKASGFNIKDTYIQWVRQAPGQGLEWMGRIDPLRKQTKYREKFEGRVTITADTSTNTAYMELSSLRSEDTAVYYCVRSGREFDYWGQGTLVTVSSASTKGPSVFPLAPSSKSTSGGTAALGCLVKDYFPEPVTVSWNSGALTSGVHTFPAVLQSSGLYSLSSVVTVPSSSLGTQTYICNVNHKPSNTKVDKKVEPKSCDKTHTCPPCPAPELLGGPSVFLFPPKPKDTLMISRTPEVTCVVVDVSHEEPEVKFNWYVDGVEVHNAKTKPREEQYNSTYRVVSVLTVLHQDWLNGKEYKCKVSNDALPKPIEETISKAKGQPREPQVYTLPPSRCELTKNQVSLSCAVKGFYPSDIAVEWESNGQPENNYKTTPPVLDSDGSFFLVSKLTVDKSRWQQGNVFSCSVMHEALHNHYTQKSLSLSP
light: DIQMTQSPSSLSASVGDRVTITCRASQDIHKYIAWYQQKPGQAPRLLIQYTSTLQPGVPSRFSGSGSGTDYTFTISSLQPEDIATYYCLQYEQLRTFGGGTKVEIKRTVAAPSVFIFPPSDEQLKSGTASVVCLLNNFYPREAKVQWKVDNALQSGNSQESVTEQDSKDSTYSLSSTLTLSKADYEKHKVYACEVTHQGLSSPVTKSFNRGEC
notes: also called EGL-ART2; ART2
- EC50 value (µg/mL), ADCC reporter bioassay (fold induction of luminescence), Hepa1-6/hEREG target cells [1]: 0.00135 µg/mL
- A/I ratio (KD for FcγRIIb divided by KD for each FcyR) [2]: 5.8
- A/I ratio (KD for FcγRIIb divided by KD for each FcyR) [3]: 68.4
- EC50 value (µg/mL), ADCP reporter bioassay (fold induction of luminescence), Hepa1-6/hEREG target cells [4]: 0.0218 µg/mL
